Test results published in the nanobody polyreactivity screen of Harvey et al. (2022).

Assay: yeast display, Sf9 membrane polyspecificity reagent, FACS + sequencing; frameworks hold sequencing errors
In short: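 Galactose induction of a Saccharomyces cerevisiae BJ5465 synthetic nanobody display library ran 36–48 hours. The cells were then stained for 1 hour at 4 °C with 10% biotinylated, detergent-solubilized Sf9 membrane reagent, pulled down on streptavidin microbeads and FACS-sorted into low and high (top ~1%) gates on expression and reagent-binding fluorescence. Labels for polyreactivity follow the gate of origin.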

| Sequence | polyreactivity (PSR sort gate) |
| --- | --- |
| QVQLVESGGGLVQAGGSLRLSCAASGFIFPSYAMGWYRQAPGKERELVAAITRSSGSTYYADSVKGRFTISRDNAKNTVYLEMNCLKAVDTAVYYCNAFDYSYYRSPEMDYWGQGTQVTVSS | high polyreactivity |
| QVQLVESGGGLVQAGGSLRLSCAASGFIFPTYAMGWYRQAPGKERELVAAISRSGGRTYYADSVKGRFTISRDNAKNTVYLQKNSLKPEDTAVYYCAAAYLRRVAYDYWGQGTQVTVSS | high polyreactivity |
| QVQLVESGGGLVQAGGSLRLSCAASGFIFPVNAMGWYRQAAGKERELVAAITSSGGDTYYADSVKGRFTISRDNAKNTVYLQMNSLKPEDTAVYYCAAEYTQEQEDYDYWGQGTQLTVSS | low polyreactivity |
| QVQLVESGGGLVQAGGSLRLSCAASGFIFPWYAMGWYRLAPGKERELVAIISWDTGSTYYADSVKGRFTISRDNAKNTVYLQMNSLKPEDTAVYYCVAYVCSTYSAPEYYWGQGTQVTVSS | low polyreactivity |
| QVQLVESGGGLVQAGGSLRLSCAASGFIFPWYSMVWSRQAPGKERELVAAISRGGRTNYADSVKGRFTISRDNAKNTVYLQMNSLIPEDTAVYYCAKKYYLSGSRADDSWGQGTQVTVSS | high polyreactivity |
| QVQLVESGGGLVQAGGSLRLSCAASGFIFPYYALGWYRQAPGKEREFVAAISKTAGRTYYADSVKGRFTISRDNAKNTVYLQMNSLKPEDTAVYYCAVGNKRDAYYQYSSYGYWGQGTQVTVSS | low polyreactivity |
| QVQLVESGGGLVQAGGSLRLSCAASGFIFPYYAMGWYRQAPGKDRELVAAISQSGGSTYYADSVKGRFTISRDYAKNTVYLQMNSLKPEDTEVYYCAKFIPSYHDGDYWGQGTQVTVSS | low polyreactivity |
| QVQLVESGGGLVQAGGSLRLSCAASGFIFPYYAMGWYRQAPGKERELVAAILTGGSTYYADSVKGRFTISRDNAKNTVYLQMNSLKAEDSAVYYCAARRKYDPNYYWGQGTQVTVSS | high polyreactivity |
| QVQLVESGGGLVQAGGSLRLSCAASGFIFPYYAMGWYRQAPGKERELVATITSSGGSTYYADSVKGRFTISRDNAKNTVYLQMNSLKPEDTAVYYCAARRRYKYYGSRYDYWGQGTQVTVSS | high polyreactivity |
| QVQLVESGGGLVQAGGSLRLSCAASGFIFQGYVMGRYRQAPGKVREFVAAISRSGGTTFYADSVKGRFTISRDNAKNPVYLQMNSLKPEDTAVYYCNRAPLGRPGYDYWGPGTQVTVSS | high polyreactivity |
| QVQLVESGGGLVQAGGSLRLSCAASGFIFQKYAMGWYRQAPGKERELVAAITKRGGSTYYADSVKGRFTISRDNAKNTVYLQMNSLKPEDTAVYYCAAYAYDYEYDYWGQGTQVTVSS | high polyreactivity |
| QVQLVESGGGLVQAGGSLRLSCAASGFIFQQNAMGWYRQAPAKERELVAAINRSGGSTNYADSVKGRFTISRDNAKNTVYLQMNSLKPEDTAVYYCATNGRSFVSKSTMYYWGQGTQVTVSS | high polyreactivity |
| QVQLVESGGGLVQAGGSLRLSCAASGFIFQRYAMGWYRPAPGKERELVAAISWSGGSTSYADSVKGRFTISRDNAKNPVYLQMYSLKPVDTAVYYCAARRPVYRKYGDRGRWYNYWGQGTQVTVSS | high polyreactivity |
| QVQLVESGGGLVQAGGSLRLSCAASGFIFQRYAMGWYRQAPGKERELVAAISWSGGITYYADSVKGRFTISRDNAKNTVYLQMHSLKPEDTAVYYCAAGLAVGDYYWGQGTQVTVSS | high polyreactivity |
| QVQLVESGGGLVQAGGSLRLSCAASGFIFQSYAMGWYRQAPGKERELVAAISASGGRTYYADSVKGRFTISRDNAKNTVYLQMNSLKPEDNAVYYCNARPAGRGYNYWGQGTQVTVSS | high polyreactivity |
| QVQLVESGGGLVQAGGSLRLSCAASGFIFQTNHMGWYRQAPGKERELVAAISSGDSTYYADSVKGRFTISRDNAKNTVYLQMNSLIPEDTAVYYCAADVLGTTTVGGFNYWGQGTQVTVSS | low polyreactivity |
| QVQLVESGGGLVQAGGSLRLSCAASGFIFQYYAMGWFRQARGKERELVAAIRSGGSTYYADSVKGRFTISRDNAKNTFYLQLNSLKPEDTAVYFCGAKYRVFYGFDYWGQGTQVTVSS | high polyreactivity |
| QVQLVESGGGLVQAGGSLRLSCAASGFIFQYYAMGWYRQAPGKERELVAVIRSGGSTYYADSVKGRFTISRDNAKNTVYLQMNSLKPEDTAVYYCARPSRGPPRGYYWGHGTQVTVSS | high polyreactivity |
| QVQLVESGGGLVQAGGSLRLSCAASGFIFRDNAMGWYRQAPGKERELVAAISERGGRTYYADSVKGRFTISRDNEKNTVYLQMISLKPEDTAVYYCAAEDIANFYYWGQGTQVTVSS | high polyreactivity |
| QVQLVESGGGLVQAGGSLRLSCAASGFIFRDNAMGWYRQAPGKERELVASIRSSGGRTYYADSVKGRFTISRDNAKNTVYLQMNSLKPEDTAVYYCARRWYPVTPYARMYYWGQGTQVTVSS | low polyreactivity |
| QVQLVESGGGLVQAGGSLRLSCAASGFIFRGNAMGWYRQAPGKERELVAAISVRGGRTYYADSVKGRFTISRDNAKNTVYLQMNSLKPEDTAVYYCAADLYNRGRGSSQSYRTGYDYWGQGTQVTVSS | high polyreactivity |
| QVQLVESGGGLVQAGGSLRLSCAASGFIFRGYAMGWYRQAPGKERELVAAITSSGGDTYYADSVKGRFTISRDNAKNTVYLQMNSLKPEDTAVYYCAKRARRIGDVNMGSWGQGTQVTVSS | low polyreactivity |
| QVQLVESGGGLVQAGGSLRLSCAASGFIFRGYGMGWYRQAPGKERELVASITTGGRTNYADSVKGRFTISRDNAKNTVYVQMNSLKPEDTAVYYCAATYYLRLRRPYWQGFNYWGQGTQVTVSS | high polyreactivity |
| QVQLVESGGGLVQAGGSLRLSCAASGFIFRGYTMGWYRQAPGKERELVAAITTTSSTYYADSVKGRFTISRDNAKNTVYLQMNSLKPEDTAVYYCAALFYRYGYLYNYWGQGTQVTVSS | high polyreactivity |
| QVQLVESGGGLVQAGGSLRLSCAASGFIFRHYAMGWYRQAPGKARELVAVINWSGSSTYYADSVKGRFTISRDNAKNTVYLQMNSLKPEDTAVYYCAVRSLRVDKYGYWGQGTQVTVSS | high polyreactivity |
| QVQLVESGGGLVQAGGSLRLSCAASGFIFRHYTMGWYRQAPGKERELVAAISSGGSTYYADSVKGRFTISRDNEKNTVYLQMNSLKPEDTAVYYCAARSRIYGLLFYYWGLGTQVTVSS | high polyreactivity |
| QVQLVESGGGLVQAGGSLRLSCAASGFIFRKYAMGWYRHAPGKETELVAAITRNGGRTYYADSVKGRFTISRDNAKYTVYLQMNSLKPEDTAVFYCNRRGQYTFWPIHEYWGQGTQVTVSS | high polyreactivity |
| QVQLVESGGGLVQAGGSLRLSCAASGFIFRLYAMGWYRQAPGKERELVAAISSSGGRTTYADSVKGRFTISRDNAKNTVYLQMNSLKPEDTAVYYCNADLWPGNHDGYWGQGTQVTVSS | low polyreactivity |
| QVQLVESGGGLVQAGGSLRLSCAASGFIFRNYALGWYRQAPGTERELVAAITGRGTSTYYADSVKGRFTISRDNAKNTVYLQMNSLKPEDTAVYYCAARSLALVYRKYDYWGQGTQVTVSS | high polyreactivity |
| QVQLVESGGGLVQAGGSLRLSCAASGFIFRNYAMGWYRQAPGKERELVASISRGTSTNYADSVKGRFTISRDNAKNTVDLQMNSLKPEDTAVYYCAVGRYPYGSARYGFDYWGQGTQVSVSS | high polyreactivity |
